Tests used:
[1] = target: GST-fused human V158 FcγRIIIa (extracellular region) (human) (UniProt P08637); test: SPR, GST-FcγRIIIa V158 on chip
[2] = target: GST-fused human V158 FcγRIIIa (extracellular region) (human) (UniProt P08637); test: AlphaScreen competition with biotinylated WT AC10

Sequence of GST-fused human V158 FcγRIIIa (extracellular region) (human) (P08637 17-208 F176V): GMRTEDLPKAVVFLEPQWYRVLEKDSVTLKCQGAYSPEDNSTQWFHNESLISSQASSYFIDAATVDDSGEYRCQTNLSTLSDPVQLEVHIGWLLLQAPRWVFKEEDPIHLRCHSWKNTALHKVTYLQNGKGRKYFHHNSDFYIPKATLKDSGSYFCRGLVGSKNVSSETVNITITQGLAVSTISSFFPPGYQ

Kd [1]: 18.6 nM
IC50 [2]: 87.2 nM
Substance: WT AC10 antibody (L0/H0)
